Assay results: the supplement of paper PMC11246515
± gives the standard deviation of the averaged measurements.

Test: total protein half-life in vivo (active degradation + dilution); higher = more stable protein
[1] = E. coli NCM3722 delta-clpP delta-lon delta-hslV, growth: N-lim chemostat, doubling time 6 h
[2] = E. coli NCM3722 delta-clpP, growth: N-lim chemostat, doubling time 6 h
[3] = E. coli NCM3722 delta-hslV, growth: N-lim chemostat, doubling time 6 h
[4] = E. coli NCM3722 delta-smpB, growth: N-lim chemostat, doubling time 6 h
[5] = wild type E. coli NCM3722, growth: C-lim chemostat, doubling time 3 h
[6] = wild type E. coli NCM3722, growth: C-lim chemostat, doubling time 6 h
[7] = wild type E. coli NCM3722, growth: N-lim chemostat, doubling time 6 h
[8] = wild type E. coli NCM3722, growth: P-lim chemostat, doubling time 6 h
[9] = wild type E. coli NCM3722, growth: P-lim chemostat, doubling time 12 h
[10] = wild type E. coli NCM3722, growth: C-lim chemostat, doubling time 12 h
[11] = wild type E. coli NCM3722, growth: N-lim chemostat, doubling time 12 h
[12] = E. coli NCM3722 delta-lon, growth: N-lim chemostat, doubling time 6 h

| Sequence | total protein half-life in vivo [1] [h] | total protein half-life in vivo [2] [h] | total protein half-life in vivo [3] [h] | total protein half-life in vivo [4] [h] | total protein half-life in vivo [5] [h] | total protein half-life in vivo [6] [h] | total protein half-life in vivo [7] [h] | total protein half-life in vivo [8] [h] | total protein half-life in vivo [9] [h] | total protein half-life in vivo [10] [h] | total protein half-life in vivo [11] [h] | total protein half-life in vivo [12] [h] |
| --- | --- | --- | --- | --- | --- | --- | --- | --- | --- | --- | --- | --- |
| MKISLVVPVFNEEEAIPIFYKTVREFEELKSYEVEIVFINDGSKDATESIINALAVSDPLVVPLSFTRNFGKEPALFAGLDHATGDAIIPIDVDLQDPIEVIPHLIEKWQAGADMVLAKRSDRSTDGRLKRKTAEWFYKLHNKISNPKIEENVGDFRLMSRDVVENIKLMPERNLFMKGILSWVGGKTDIVEYVRAERIAGDTKFNGWKLWNLALEGITSFSTFPLRIWTYIGLVVASVAFIYGAWMILDTIIFGNAVRGYPSLLVSILFLGGIQMIGIGVLGEYIGRTYIETKKRPKYIIKRVKK | 6.26 ± 0.44 | 6.88 ± 1.2 | 7.42 ± 0.82 | 6.23 ± 0.34 | 3.54 ± 0.22 | 6.05 ± 0.38 | 6.19 ± 0.16 | 6.08 ± 0.13 | 13.7 ± 0.2 | – | – | – |
| MKQWIAALLLMLIPGVQAAKPQKVTLMVDDVPVAQVLQALAEQEKLNLVVSPDVSGTVSLHLTDVPWKQALQTVVKSAGLITRQEGNILSVHSIAWQNNNIARQEAEQARAQANLPLENRSITLQYADAGELAKAGEKLLSAKGSMTVDKRTNRLLLRDNKTALSALEQWVAQMDLPVGQVELSAHIVTINEKSLRELGVKWTLADAQHAGGVGQVTTLGSDLSVATATTHVGFNIGRINGRLLDLELSALEQKQQLDIIASPRLLASHLQPASIKQGSEIPYQVSSGESGATSVEFKEAVLGMEVTPTVLQKGRIRLKLHISQNVPGQVLQQADGEVLAIDKQEIETQVEVKSGETLALGGIFTRKNKSGQDSVPLLGDIPWFGQLFRHDGKEDERRELVVFITPRLVSSE | 3.42 ± 1.4 | – | – | – | – | – | – | – | 4.33 | 6.11 | 4.56 | – |
| MSANTEAQGSGRGLEAMKWVVVVALLLVAIVGNYLYRDIMLPLRALAVVILIAAAGGVALLTTKGKATVAFAREARTEVRKVIWPTRQETLHTTLIVAAVTAVMSLILWGLDGILVRLVSFITGLRF [P0AG96] | 4.72 | 3.93 | 4.78 ± 0.21 | 4.69 ± 0.097 | 2.81 ± 0.067 | 5.11 ± 0.16 | 4.48 ± 0.26 | 4.43 | 8.75 ± 1.2 | 9.61 | 8.61 ± 1.6 | 4.6239 ± 0.0021 |
| MFSEVMRYILDLGPTVMLPIVIIIFSKILGMKAGDCFKAGLHIGIGFVGIGLVIGLMLDSIGPAAKAMAENFDLNLHVVDVGWPGSSPMTWASQIALVAIPIAILVNVAMLLTRMTRVVNVDIWNIWHMTFTGALLHLATGSWMIGMAGVVIHAAFVYKLGDWFARDTRNFFELEGIAIPHGTSAYMGPIAVLVDAIIEKIPGVNRIKFSADDIQRKFGPFGEPVTVGFVMGLIIGILAGYDVKGVLQLAVKTAAVMLLMPRVIKPIMDGLTPIAKQARSRLQAKFGGQEFLIGLDPALLLGHTAVVSASLIFIPLTILIAVCVPGNQVLPFGDLATIGFFVAMAVAVHRGNLFRTLISGVIIMSITLWIATQTIGLHTQLAANAGALKAGGMVASMDQGGSPITWLLIQVFSPQNIPGFIIIGAIYLTGIFMTWRRARGFIKQEKVVLAE | 6.09 | – | – | – | – | – | – | – | – | – | – | – |
| MHITLRQLEVFAEVLKSGSTTQASVMLALSQSAVSAALTDLEGQLGVQLFDRVGKRLVVNEHGRLLYPRALALLEQAVEIEQLFREDNGAIRIYASSTIGNYILPAVIARYRHDYPQLPIELSVGNSQDVMQAVLDFRVDIGFIEGPCHSTEIISEPWLEDELVVFAAPTSPLARGPVTLEQLAAAPWILRERGSGTREIVDYLLLSHLPKFEMAMELGNSEAIKHAVRHGLGISCLSRRVIEDQLQAGTLSEVAVPLPRLMRTLWRIHHRQKHLSNALRRFLDYCDPANVPR [P0ACR4] | 5.84 ± 0.54 | 7.58 | 5.48 | 6.21 | 2.32 | 5.78 ± 0.65 | 4.98 ± 0.021 | 5.59 ± 0.33 | 10.5 ± 1.9 | 13 | 9.4289 ± 0.0056 | 5.76 ± 0.15 |
| MNKSRQKELTRWLKQQSVISQRWLNISRLLGFVSGILIIAQAWFMARILQHMIMENIPREALLLPFTLLVLTFVLRAWVVWLRERVGYHAGQHIRFAIRRQVLDRLQQAGPAWIQGKPAGSWATLVLEQIDDMHDYYARYLPQMALAVSVPLLIVVAIFPSNWAAALILLGTAPLIPLFMALVGMGAADANRRNFLALARLSGHFLDRLRGMETLRIFGRGEAEIESIRSASEDFRQRTMEVLRLAFLSSGILEFFTSLSIALVAVYFGFSYLGELDFGHYDTGVTLAAGFLALILAPEFFQPLRDLGTFYHAKAQAVGAADSLKTFMETPLAHPQRGEAELASTDPVTIEAEELFITSPEGKTLAGPLNFTLPAGQRAVLVGRSGSGKSSLLNALSGFLSYQGSLRINGIELRDLSPESWRKHLSWVGQNPQLPAATLRDNVLLARPDASEQELQAALDNAWVSEFLPLLPQGVDTPVGDQAARLSVGQAQRVAVARALLNPCSLLLLDEPAASLDAHSEQRVMEALNAASLRQTTLMVTHQLEDLADWDVIWVMQDGRIIEQGRYAELSVAGGPFATLLAHRQEEI | – | 6.56 ± 0.17 | 5.94 ± 0.14 | 5.95 ± 0.69 | 3.54 ± 0.42 | 5.88 ± 0.21 | 6.42 ± 0.35 | 6.33 ± 0.11 | 11.8 ± 0.91 | – | 12.7 ± 1.1 | 6.1322 ± 0.0016 |
| MKLNIFTKSMIGMGLVCSALPALAMEAWNNQQGGNKYQVIFDGKIYENAWWVSSTNCPGKAKANDATNPWRLKRTATAAEISQFGNTLSCEKSGSSSSSNSNTPASNTPANGGSATPAQGTVPSNSSVVAWNKQQGGQTWYVVFNGAVYKNAWWVASSNCPGDAKSNDASNPWRYVRAATATEISETSNPQSCTSAPQPSPDVKPAPDVKPAPDVQPAPADKSNDNYAVVAWKGQEGSSTWYVIYNGGIYKNAWWVGAANCPGDAKENDASNPWRYVRAATATEISQYGNPGSCSVKPDNNGGAVTPVDPTPETPVTPTPDNSEPSTPADSVNDYSLQAWSGQEGSEIYHVIFNGNVYKNAWWVGSKDCPRGTSAENSNNPWRLERTATAAELSQYGNPTTCEIDNGGVIVADGFQASKAYSADSIVDYNDAHYKTSVDQDAWGFVPGGDNPWKKYEPAKAWSASTVYVKGDRVVVDGQAYEALFWTQSDNPALVANQNATGSNSRPWKPLGKAQSYSNEELNNAPQFNPETLYASDTLIRFNGVNYISQSKVQKVSPSDSNPWRVFVDWTGTKERVGTPKKAWPKHVYAPYVDFTLNTIPDLAALAKNHNVNHFTLAFVVSKDANTCLPTWGTAYGMQNYAQYSKIKALREAGGDVMLSIGGANNAPLAASCKNVDDLMQHYYDIVDNLNLKVLDFDIEGTWVADQASIERRNLAVKKVQDKWKSEGKDIAIWYTLPILPTGLTPEGMNVLSDAKAKGVELAGVNVMTMDYGNAICQSANTEGQNIHGKCATSAIANLHSQLKGLHPNKSDAEIDAMMGTTPMVGVNDVQGEVFYLSDARLVMQDAQKRNLGMVGIWSIARDLPGGTNLSPEFHGLTKEQAPKYAFSEIFAPFTKQ | 4.89 ± 0.41 | 7.07 ± 0.34 | 5.22 ± 1.2 | 5.97 ± 0.68 | – | 5.72 | 5.87 ± 0.36 | 6.31 ± 0.59 | – | 10.9 ± 1.9 | 12.9 ± 0.98 | – |
